Tests used:
[1] = biological target: HLA-A2.1 MHC class I molecules on T2 cells (human); test: T2 cells pulsed with peptide, anti-HLA-A2.1 flow cytometry; Brefeldin A treatment: 0 hr
Description: (§1) T2 cells were washed and resuspended in serum-free AIM-VTM (Gibco-Life Technologies, Rockville, Md.) at a final concentration of 1×10⁶ cells/ml and transferred into a 24-well tissue culture plate. […] After incubation, cells were washed once with PBS containing 3% FCS, and stained with mouse anti-HLA-A2.1 monoclonal antibody for 15 minutes at 4° C. After washing, the cells were incubated with goat anti-mouse IgG(F(ab′)2)-FITC for 15 minutes at 4° C. The cells were washed once, and fluorescence was measured on a FACSort™ flow cytometer (Becton Dickson, San Jose, Calif.). The fluorescence index was calculated as follows: (mean channel fluorescence of sample−mean channel fluorescence of unstained control cells)/mean channel fluorescence of unstained control cells.

[2] = biological target: HLA-A2.1 MHC class I molecules on T2 cells (human); test: T2 cells pulsed with peptide, anti-HLA-A2.1 flow cytometry; Brefeldin A treatment: 2 hr
Description: as §1

[3] = biological target: HLA-A2.1 MHC class I molecules on T2 cells (human); test: T2 cells pulsed with peptide, anti-HLA-A2.1 flow cytometry; Brefeldin A treatment: 4 hr
Description: as §1

[4] = biological target: HLA-A2.1 MHC class I molecules on T2 cells (human); test: T2 cells pulsed with peptide, anti-HLA-A2.1 flow cytometry; Brefeldin A treatment: 6 hr
Description: as §1

[5] = biological target: HLA-A2.1 MHC class I molecules on T2 cells (human); test: T2 cells pulsed with peptide, anti-HLA-A2.1 flow cytometry; Brefeldin A treatment: None
Description: as §1

[6] = biological target: HLA-A2.1 MHC class I molecules on T2 cells (human); test: T2 cells pulsed with peptide, anti-HLA-A2.1 flow cytometry; Brefeldin A treatment: Overnight
Description: as §1

B1: CD20 peptide FIRAHTPYI (SEQ ID NO: 8) (peptide)
peptide: FIRAHTPYI
notes: Synthetic nonamer
binding score (HLA-A2.1 fluorescence on T2 cells) [1]: 232 | binding score (HLA-A2.1 fluorescence on T2 cells) [2]: 215 | binding score (HLA-A2.1 fluorescence on T2 cells) [3]: 192 | binding score (HLA-A2.1 fluorescence on T2 cells) [4]: 154 | binding score (HLA-A2.1 fluorescence on T2 cells) [5]: 167 | binding score (HLA-A2.1 fluorescence on T2 cells) [6]: 250

B2: CD19 peptide LLFLTPMEV (SEQ ID NO: 3) (peptide)
peptide: LLFLTPMEV
notes: Synthetic nonamer
binding score (HLA-A2.1 fluorescence on T2 cells) [1]: 770 | binding score (HLA-A2.1 fluorescence on T2 cells) [2]: 924 | binding score (HLA-A2.1 fluorescence on T2 cells) [3]: 880 | binding score (HLA-A2.1 fluorescence on T2 cells) [4]: 573 | binding score (HLA-A2.1 fluorescence on T2 cells) [5]: 556 | binding score (HLA-A2.1 fluorescence on T2 cells) [6]: 453

B3: CD20 peptide SHFLKMESL (SEQ ID NO: 11) (peptide)
peptide: SHFLKMESL
notes: Synthetic nonamer
binding score (HLA-A2.1 fluorescence on T2 cells) [1]: 216 | binding score (HLA-A2.1 fluorescence on T2 cells) [2]: 218 | binding score (HLA-A2.1 fluorescence on T2 cells) [3]: 199 | binding score (HLA-A2.1 fluorescence on T2 cells) [4]: 127 | binding score (HLA-A2.1 fluorescence on T2 cells) [5]: 172 | binding score (HLA-A2.1 fluorescence on T2 cells) [6]: 277

B4: CD19 peptide TLAYLIFCL (SEQ ID NO: 2) (peptide)
peptide: TLAYLIFCL
notes: Synthetic nonamer
binding score (HLA-A2.1 fluorescence on T2 cells) [1]: 530 | binding score (HLA-A2.1 fluorescence on T2 cells) [2]: 608 | binding score (HLA-A2.1 fluorescence on T2 cells) [3]: 513 | binding score (HLA-A2.1 fluorescence on T2 cells) [4]: 387 | binding score (HLA-A2.1 fluorescence on T2 cells) [5]: 363 | binding score (HLA-A2.1 fluorescence on T2 cells) [6]: 312

B5: CD19 peptide RLLFFLLFL (SEQ ID NO: 1) (peptide)
peptide: RLLFFLLFL
notes: Synthetic nonamer
binding score (HLA-A2.1 fluorescence on T2 cells) [1]: 167 | binding score (HLA-A2.1 fluorescence on T2 cells) [2]: 202 | binding score (HLA-A2.1 fluorescence on T2 cells) [3]: 174 | binding score (HLA-A2.1 fluorescence on T2 cells) [4]: 152 | binding score (HLA-A2.1 fluorescence on T2 cells) [6]: 248

B6: CD20 peptide SLNFIRAHT (SEQ ID NO: 9) (peptide)
peptide: SLNFIRAHT
notes: Synthetic nonamer
binding score (HLA-A2.1 fluorescence on T2 cells) [1]: 212 | binding score (HLA-A2.1 fluorescence on T2 cells) [2]: 200 | binding score (HLA-A2.1 fluorescence on T2 cells) [3]: 180 | binding score (HLA-A2.1 fluorescence on T2 cells) [4]: 128 | binding score (HLA-A2.1 fluorescence on T2 cells) [5]: 172 | binding score (HLA-A2.1 fluorescence on T2 cells) [6]: 195

B7: CD19 peptide KLMSPKLYV (SEQ ID NO: 4) (peptide)
peptide: KLMSPKLYV
notes: Synthetic nonamer
binding score (HLA-A2.1 fluorescence on T2 cells) [1]: 683 | binding score (HLA-A2.1 fluorescence on T2 cells) [3]: 796 | binding score (HLA-A2.1 fluorescence on T2 cells) [4]: 642 | binding score (HLA-A2.1 fluorescence on T2 cells) [6]: 540

B8: CD20 peptide AISGMILSI (SEQ ID NO: 7) (peptide)
peptide: AISGMILSI
notes: Synthetic nonamer
binding score (HLA-A2.1 fluorescence on T2 cells) [1]: 220 | binding score (HLA-A2.1 fluorescence on T2 cells) [2]: 256 | binding score (HLA-A2.1 fluorescence on T2 cells) [3]: 165 | binding score (HLA-A2.1 fluorescence on T2 cells) [4]: 144 | binding score (HLA-A2.1 fluorescence on T2 cells) [5]: 162 | binding score (HLA-A2.1 fluorescence on T2 cells) [6]: 232

B9: CD20 peptide LKMESLNFI (SEQ ID NO: 10) (peptide)
peptide: LKMESLNFI
notes: Synthetic nonamer
binding score (HLA-A2.1 fluorescence on T2 cells) [1]: 245 | binding score (HLA-A2.1 fluorescence on T2 cells) [2]: 291 | binding score (HLA-A2.1 fluorescence on T2 cells) [3]: 227 | binding score (HLA-A2.1 fluorescence on T2 cells) [4]: 190 | binding score (HLA-A2.1 fluorescence on T2 cells) [5]: 215 | binding score (HLA-A2.1 fluorescence on T2 cells) [6]: 225

B10: CD19 peptide LLFFLLFLV (SEQ ID NO: 5) (peptide)
peptide: LLFFLLFLV
binding score (HLA-A2.1 fluorescence on T2 cells) [1]: 200 | binding score (HLA-A2.1 fluorescence on T2 cells) [2]: 202 | binding score (HLA-A2.1 fluorescence on T2 cells) [3]: 163 | binding score (HLA-A2.1 fluorescence on T2 cells) [4]: 143 | binding score (HLA-A2.1 fluorescence on T2 cells) [5]: 164 | binding score (HLA-A2.1 fluorescence on T2 cells) [6]: 200

B11: CD20 peptide SLFLGILSV (SEQ ID NO: 6) (peptide)
peptide: SLFLGILSV
notes: Synthetic nonamer
binding score (HLA-A2.1 fluorescence on T2 cells) [1]: 672 | binding score (HLA-A2.1 fluorescence on T2 cells) [2]: 703 | binding score (HLA-A2.1 fluorescence on T2 cells) [3]: 762 | binding score (HLA-A2.1 fluorescence on T2 cells) [4]: 770 | binding score (HLA-A2.1 fluorescence on T2 cells) [5]: 637 | binding score (HLA-A2.1 fluorescence on T2 cells) [6]: 410
